These results are taken from US20160200813A1.

In assay [1] the target is Mouse LRP-8 expressed on HEK293 cells (mouse) (UniProt Q924X6). Nature of the assay: cell-based ECL-MSD, 10 ug/ml Ab, mouse-LRP-8-HEK293.
Assay [2] shares this target. Briefly: cell-based binding on MOUSE LRP8-HEK293, supernatant 1:125.
Assay [3] has the same target. Briefly: cell-based binding on MOUSE LRP8-HEK293, supernatant 1:5.
For assay [4] the target is unchanged. Nature of the assay: cell-based binding on MOUSE LRP8-HEK293, supernatant 1:25.
Assay [5] shares this target. Briefly: cell-based binding assay, mLRP8.
For assay [6] the target is unchanged. Nature of the assay: fit of the FACS titration of FIG. 12A on mLRP8-transfected HEK293 cells; the column head prints EC50 only, nM is from legend paragraph 78 and the axis of FIG. 12A.
The target is the same in assay [7]. Briefly: mLRP8 cell binding.
Assay [8] shares this target. Briefly: FACS, mouse LRP8 cells.

B1: anti-LRP-8 antibody ab58216 (mFc) (antibody, V domains shown)
VH: EVHLQQSGPEVVKPGASVKISCKASGYIISGYFLNWVKQSHGKSLEWVGRINPYSGDTFFNQKFKGKATLTVDKSSNTAHMELRSLTSEDSAVFYCAREDIGRFAYWGQGTLVTVSA
VL: DVLMTQTPLSLPVSLGDQASISCRSSQTIVHSNGNTYLEWYLQKPGQSPKLLIYKVSNRFSGVPDRFSGSGSGTDFTLKISRVEAEDLGVYYCFQGSHAPPTFGGGTKLEIK
For the molecule B1, in assay [1], the fold over mIgG control came out at 19.2 fold.

B2: anti-LRP-8 ML201-2B4.2B1.2H10 murine antibody (muFc) (antibody, V domains shown)
VH: DVKLVASGGGLVKPGGSLKLSCAASGFTLSRYAMSWVRQTPEKRLEWVAYIRNGGDYIYYADTVKGRFTISRDNARNTLYLQMSSLKSEDTAMYYCTREGSYYNFDYWGQGTTLTVSS
VL: DVLMTQTPLSLPVSLGDQASISCRSSQSIVHSNGNTYLEWYLQKPGQSPNLLIFKVSNRFSGVPDRFIGSGSGTDFTLKISRVEAEDLGVYYCFQGSHVPWTFGGGTKLEIK
Turning to B2, the fold over mIgG control in assay [1] was determined as 1.2 fold.

B3: anti-LRP-8 BGK.5D10.E4 [r/m IgG2a/K] (antibody, V domains shown)
VH: QVQLRETGPDLVQPTQTLSLTCTVSGFSLTNYPVQWVRQPPGSGLEWLGIMWPSGAADFNPALKSRLSISRDTSKSQFFLRMDNLQTDDTAIYFCARGRGYSSPYAMDAWGQGTSVTVSS
VL: DIQMTQSPASLSASLGETVSIECLASEDIYNNLAWYQQKPGKSPHLLIHFTSNLQDGVPSRFSGSGSGTQYSLKINSLESEDGATYFCLQDSEYPLTFGSGTKLEIK
As to B3, the values for the fold over isotype control in assay [2], in assay [3] and in assay [4] were 0.16 fold, 0.04 fold and 0.16 fold, respectively.

B4: anti-LRP-8 BGK-9D10-2 antibody (CL-105967) (antibody, V domains shown)
VH: EVQLVESGGGLVQSGRSLKLSCAASGFTFSNYYMAWVRQAPKKGLEWVATITTSGSRSFYPDSVKGRFTISRDNAKSSLYLQINSLKSEDTATYYCARRGPLGYFDHWGRGVMVTVSS
VL: DIQMTQSPPSLPASLGDKVTITCQASQNINKYIAWYQQKPGKAPRLLIRFTSTLESDTPSRFSGSGSGRDYSFSISNVESEDFASYYCLHYDNLPPWTFGGGTKLELK
Molecule B4 displayed an EC50 in assay [5] of 0.43 nM.

B5: anti-LRP-8 ML199-11H1.5B2 murine antibody (muFc) (antibody, V domains shown)
VH: EVQLVESGGDLVKPGGSLKLSCAASRFTFSNYGMSWVRQTPDKRLEWVATISSGGRYTYYPDSVKGRFTISRDNAKNTLYLQMSSLRSEDTAMYYCARDYLYAMDYWGQGTSVTVSS
VL: DVVMTQTPLSLPVSLGDQASISCRSSQSLVYSNGNTYLHWYLQKPGQSPKVLMYKVSNRFSGVSDRFSGSGSGTDFTLKISRVEAEDLGVYFCSQSTHVPLTFGAGTKLELK
Consider B5, for which, in assay [6], the concentration for a half-maximal effect (EC50) stood at 8.36 nM. In assay [1], the fold over mIgG control amounted to 23.1 fold.

B6: humanized ML199-11H1.5B2VH.1a/VL.1a (antibody, V domains shown)
VH: EVQLVESGGGLVKPGGSLRLSCAASRFTFSNYGMSWVRQAPGKGLEWVATISSGGRYTYYPDSVKGRFTISRDNAKNSLYLQMNSLRAEDTAVYYCARDYLYAMDYWGQGTTVTVSS
VL: DVVMTQSPLSLPVTPGEPASISCRSSQSLVYSNGNTYLHWYLQKPGQSPQVLMYKVSNRFSGVPDRFSGSGSGTDFTLKISRVEAEDVGVYFCSQSTHVPLTFGQGTKLEIK
B6 showed an EC50 in assay [7] of 41.8 nM.

B7: anti-LRP-8 ML201-8F3.3D7 murine antibody (muFc) (antibody, V domains shown)
VH: EVQLVESGGDLVKPGGSLKLSCAASRFTFSNFGMSWVRQTPDKRLEWVATISSGGRYTYYPDSVKGRFTISRDNAKNTLYLQMSSLRSEDTAMYYCARDYLYAMDYWGQGTSVTVSS
VL: DVVMTQTPLSLPVSLGDQASISCRSSQSLVYSNGNTYLHWYLQKPGQSPKVLMYKVSNRFSGVSDRFSGSGSGTDFTLKISRVEAEDLGVYFCSQSTHVPLTFGAGTKLELK
For the molecule B7, the fold over mIgG control in assay [1] came out at 21.1 fold.

B8: humanized ML199-11H1.5B2VH.1a/VL.1 (antibody, V domains shown)
VH: EVQLVESGGGLVKPGGSLRLSCAASRFTFSNYGMSWVRQAPGKGLEWVATISSGGRYTYYPDSVKGRFTISRDNAKNSLYLQMNSLRAEDTAVYYCARDYLYAMDYWGQGTTVTVSS
VL: DIVMTQSPLSLPVTPGEPASISCRSSQSLVYSNGNTYLHWYLQKPGQSPQLLIYKVSNRFSGVPDRFSGSGSGTDFTLKISRVEAEDVGVYYCSQSTHVPLTFGQGTKLEIK
In assay [7], B8 had a half-maximal effective concentration (EC50) of 6.83 nM.

B9: humanized ML199-11H1.5B2VH.1a/VL.1b (antibody, V domains shown)
VH: EVQLVESGGGLVKPGGSLRLSCAASRFTFSNYGMSWVRQAPGKGLEWVATISSGGRYTYYPDSVKGRFTISRDNAKNSLYLQMNSLRAEDTAVYYCARDYLYAMDYWGQGTTVTVSS
VL: DVVMTQSPLSLPVTPGEPASISCRSSQSLVYSNGNTYLHWYLQKPGQSPQVLIYKVSNRFSGVPDRFSGSGSGTDFTLKISRVEAEDVGVYYCSQSTHVPLTFGQGTKLEIK
Take B9: the EC50 in assay [7] came to 19.6 nM.

B10: anti-LRP-8 BGK.2C8.E6.D3 [r/m IgG2a/K] (antibody, V domains shown)
VH: QVTLKESGPGILQPSQTLSLTCTFSGFSLNTYGMGVGWVRQPSGKGLEWLANIWWDDDKFYNPSLKNRLTVSKDTSNNQAFLRITNGDTADTATYFCARILGEDIGGALDAWGQGTSVTVSS
VL: DTVLTQSPALAVSPGERVSISCRASEGVNSYMHWYQQNPGQQSKLLIYRTSNLASGVPARFGGSGSGTDFTLTIDPVEADDTATYFCQQSWNDPPTFGGGTKLELK
Consider B10, for which the fold over isotype control came out at 0.43 fold in assay [2], 0.19 fold in assay [3] and 0.45 fold in assay [4].

B11: humanized ML199-11H1.5B2VH.1/VL.1 (antibody, V domains shown)
VH: EVQLVESGGGLVKPGGSLRLSCAASRFTFSNYGMSWVRQAPGKGLEWVSTISSGGRYTYYPDSVKGRFTISRDNAKNSLYLQMNSLRAEDTAVYYCARDYLYAMDYWGQGTTVTVSS
VL: DIVMTQSPLSLPVTPGEPASISCRSSQSLVYSNGNTYLHWYLQKPGQSPQLLIYKVSNRFSGVPDRFSGSGSGTDFTLKISRVEAEDVGVYYCSQSTHVPLTFGQGTKLEIK
In assay [7], B11 had an EC50 of 22.4 nM.

B12: humanized ML199-11H1.5B2VH.1/VL.1b (antibody, V domains shown)
VH: EVQLVESGGGLVKPGGSLRLSCAASRFTFSNYGMSWVRQAPGKGLEWVSTISSGGRYTYYPDSVKGRFTISRDNAKNSLYLQMNSLRAEDTAVYYCARDYLYAMDYWGQGTTVTVSS
VL: DVVMTQSPLSLPVTPGEPASISCRSSQSLVYSNGNTYLHWYLQKPGQSPQVLIYKVSNRFSGVPDRFSGSGSGTDFTLKISRVEAEDVGVYYCSQSTHVPLTFGQGTKLEIK
In turn, B12 returned an EC50 in assay [7] of 7.92 nM.

B13: anti-LRP-8 BGK-7F7 chimeric antibody (CL-105960) (antibody, V domains shown)
VH: QVTLKESGPGILQPSQTLSLTCTFSGFSLSTYGLGVGWIRQPSGKGLEWLANIWWDDAKYYNPSLKNRLTISKDTSNNQAFLKIPNVDTADTARYYCARTTKPYYFDYWGQGVMVTVSS
VL: HFVLAQPNSVSTNLGSTVKLSCKRSTANIGSNYVNWYQQHEGRSPTTLIYRDDRRPDGVPDRFSGSIDRSSNSALLTINNVQTEDEADYFCQSYSSGINIFGGGTKLTVL
Take B13: in assay [5], the EC50 is 3.92 nM.

B14: anti-LRP-8 BGK-7A11 chimeric antibody (CL-105959) (antibody, V domains shown)
VH: QVTLKESGPGILQPSQTLSLTCTFSGFSLSTYGMGVGWIRQPAGTGLEWLANIWWDDDKYYNPSLKNRLTISKDTSNNQVFLKITNVDTADTATYYCARTTKPYYFDYWGQGVMVTVSS
VL: HFVLAQPNSVSTNLGSTVKLSCKRSTGNSGSNYVNWYQQYEGRSPTTMIYRDDKRPDGVPDRFSGSIDRSSNSALLTINNVQTEDEADYFCQSYSSGINIFGGGTKLTVL
In the case of B14, the half-maximal effective concentration (EC50) in assay [5] is 27.6 nM. Against the preceding molecule, the EC50 is about 7-fold higher.

B15: anti-LRP-8 BGK-6B5-2 chimeric antibody (CL-105969) (antibody, V domains shown)
VH: QVSLQESGPGILQPSQTLSLTCTFSGFSLSTFGMGVGWIRQPSGKGLEWLANIWWDDDKYYNPSLKNRLTISKDTSNNQAFLKITNVDTADTATYYCARTAKPYYFDYWGHGVMVTVSS
VL: HFVLAQPNSVSTNLGNTVKLSCKRSTGNIGSNYVNWYQQHEGRSPTTLIYRDDKRPDGVPDRFSGSFDRSSNSALLTINNVQTEDEADYFCQSYNSGINFFGGGTKLTVL
As for B15, the EC50 in assay [5] was determined as 41.8 nM.

B16: anti-LRP-8 BGK.6E3.F4 [r/m IgG2a/K] (antibody, V domains shown)
VH: EVQLVESGGGLVQPGKSLKLSCAASGFTFSDYNMAWVRQAPKKGLEWVATIMYDGSRTFYRDSVKGRYTFSRDNAKSTLYLQMDSLRSEDTATYYCATGRNWFAYWGQGTLVTVSS
VL: DIIMTQSPSSLAVSAGETVTINCKSSQSLLSSGKQKNYLAWYQQKPGQSPKLLIYLASTRESGVPDRFIGSGSGTDFTLTISSMQAEDLAIYYCQQHYDTPLTFGSGTKLEIK
Consider B16, for which the fold over isotype control in assay [2] was determined as 0.21 fold; in assay [3], 0.72 fold; in assay [4], 0.44 fold.

B17: anti-LRP-8 antibody CL-135325 (antibody, V domains shown)
VH: EVQLVQSGGGLVQPGGSLRLSCAASGFTFSIYAMSWVRQAPGKGLEWVSVISCSAGSTYYADSVKGRFTISRDNSKNTLYLQMNSLRAEDTAVYYCARHSVHEEFPFDVWGQGTLVTVSS
VL: DIQMTQSPSSLSASVGDRVTITCRASQSIGSYLNWYQQKPGKAPKLLIYAASSLQSGVPSRFSGSGSGTDFTLTISSLQPEDFATYYCQQSYIPPLTFGGGTKVEIK
On to B17, for which, in assay [8], the FACS (ratio +/-) was determined as 21.2.

B18: anti-LRP-8 antibody CL-135359 (antibody, V domains shown)
VH: EVQLVQSGGGLVQPGGSLRLSCAASGFTFSSYAMSWVRQAPGKGLEWVSVISCSGGTTYYADSVKGRFTISRDNSKNTLYLQMNSLRAEDTAVYYCARNGGQFDLWGQGTLVTVSS
VL: DIQMTQSPSSLSASVGDRVTITCRASQGICTYLNWYQQKPGKAPKLLIYAASSLQSGVPSRFSGSGSGTDFTLTISSLQPEDFATYYCQQSYNPPLTFGGGTKVEIK
In the case of B18, in assay [8], the FACS (ratio +/-) was determined as 7.3.
